Data as given in the supplement of paper PMC9112550, “Optimization of the antimicrobial peptide Bac7 by deep mutational scanning” (BMC Biology, 2022).

System: Escherichia coli TOP10
Experiment: shrunken log2 fold change of peptide-encoding DNA abundance (4.5 h post-induction vs induction); higher = less antimicrobial activity (less host growth inhibition)
Conditions: time post-induction: 4.5 h; library: site-saturation at positions 5, 18, 19, 20
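Also: peptides expressed intracellularly from a pBAD plasmid library in pooled LB shake-flask culture, induced with 0.3% L-arabinose, DNA abundance read by NGS, three biological replicates, DESeq2 with apeglm shrinkage.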

Row | Sequence | shrunken log2 fold change
1 | RRIRLRPPRLPRPRPRPPQGPRP | 1.27
2 | RRIRDRPPRLPRPRPRPIVWPRP | -0.0132
3 | RRIRKRPPRLPRPRPRPIPRPRP | 1.3
4 | RRIRHRPPRLPRPRPRPYISPRP | -0.0543
5 | RRIRTRPPRLPRPRPRPCATPRP | -0.0683
6 | RRIRMRPPRLPRPRPRPHWCPRP | -0.153
7 | RRIRMRPPRLPRPRPRPRCDPRP | 0.397
8 | RRIRMRPPRLPRPRPRPQLKPRP | 1.42
9 | RRIRTRPPRLPRPRPRPMHAPRP | -0.112
10 | RRIRFRPPRLPRPRPRPNNSPRP | -0.685
11 | RRIRKRPPRLPRPRPRPTQLPRP | 0.65
12 | RRIRERPPRLPRPRPRPRMSPRP | -0.254
13 | RRIRNRPPRLPRPRPRPCYAPRP | -0.424
14 | RRIRIRPPRLPRPRPRPCKAPRP | -0.181
15 | RRIRQRPPRLPRPRPRPNTIPRP | 0.0518
16 | RRIRYRPPRLPRPRPRPAESPRP | -0.00136
17 | RRIRRRPPRLPRPRPRPCPWPRP | -0.0433
18 | RRIRIRPPRLPRPRPRPAHMPRP | -0.303
19 | RRIRSRPPRLPRPRPRPLPQPRP | 0.461
20 | RRIRQRPPRLPRPRPRPKRRPRP | 0.0204
21 | RRIRARPPRLPRPRPRPRSNPRP | 0.0752
22 | RRIRMRPPRLPRPRPRPAPKPRP | 0.675
23 | RRIRVRPPRLPRPRPRPDECPRP | -0.00624
24 | RRIRCRPPRLPRPRPRPGSIPRP | -0.311
25 | RRIRMRPPRLPRPRPRPWWAPRP | -0.0423

Row | Sequence | shrunken log2 fold change
26 | RRIRHRPPRLPRPRPRPSNYPRP | -0.28
27 | RRIRKRPPRLPRPRPRPPDLPRP | 0.444
28 | RRIRIRPPRLPRPRPRPFKSPRP | -0.023
29 | RRIRTRPPRLPRPRPRPNIQPRP | -0.586
30 | RRIRNRPPRLPRPRPRPAETPRP | -0.119
31 | RRIRYRPPRLPRPRPRPHQVPRP | -0.208
32 | RRIRCRPPRLPRPRPRPRIAPRP | 0.0204
33 | RRIRDRPPRLPRPRPRPCWGPRP | 0.0493
34 | RRIRDRPPRLPRPRPRPGKIPRP | -0.176
35 | RRIRDRPPRLPRPRPRPERSPRP | 0.239
36 | RRIRTRPPRLPRPRPRPGMKPRP | -0.0344
37 | RRIRIRPPRLPRPRPRPAVHPRP | -0.145
38 | RRIRERPPRLPRPRPRPKASPRP | 0.0444
39 | RRIRRRPPRLPRPRPRPEHCPRP | -0.00244
40 | RRIRARPPRLPRPRPRPNDSPRP | -0.225
41 | RRIRSRPPRLPRPRPRPVNRPRP | -0.107
42 | RRIRFRPPRLPRPRPRPSDEPRP | -0.308
43 | RRIRPRPPRLPRPRPRPQMNPRP | -0.267
44 | RRIRKRPPRLPRPRPRPPSAPRP | 0.798
45 | RRIRRRPPRLPRPRPRPQKSPRP | -0.106
46 | RRIRMRPPRLPRPRPRPLHYPRP | -0.173
47 | RRIRNRPPRLPRPRPRPQGGPRP | -0.28
48 | RRIRLRPPRLPRPRPRPSWHPRP | 0.25
49 | RRIRARPPRLPRPRPRPFRQPRP | 0.0566
50 | RRIRQRPPRLPRPRPRPVLWPRP | 0.193

Row | Sequence | shrunken log2 fold change
51 | RRIRWRPPRLPRPRPRPKKWPRP | 0.254
52 | RRIRHRPPRLPRPRPRPSCSPRP | -0.876
53 | RRIRVRPPRLPRPRPRPLWSPRP | -0.0257
54 | RRIRVRPPRLPRPRPRPIIGPRP | 0.0272
55 | RRIRLRPPRLPRPRPRPRPFPRP | 0.358
56 | RRIRVRPPRLPRPRPRPWDGPRP | -0.00294
57 | RRIRFRPPRLPRPRPRPCDCPRP | -0.0184
58 | RRIRTRPPRLPRPRPRPMVDPRP | -0.00822
59 | RRIRRRPPRLPRPRPRPHFFPRP | 0.149
60 | RRIRTRPPRLPRPRPRPQFMPRP | 0.0325
61 | RRIRHRPPRLPRPRPRPVEFPRP | -0.178
62 | RRIRERPPRLPRPRPRPNHDPRP | -0.551
63 | RRIRKRPPRLPRPRPRPKHGPRP | 0.157
64 | RRIRYRPPRLPRPRPRPWASPRP | -0.154
65 | RRIRQRPPRLPRPRPRPSGYPRP | -0.0295
66 | RRIRYRPPRLPRPRPRPVYTPRP | -0.499
67 | RRIRERPPRLPRPRPRPDTWPRP | -0.295
68 | RRIRERPPRLPRPRPRPVQYPRP | -0.418
69 | RRIRPRPPRLPRPRPRPSWKPRP | 0.105
70 | RRIRYRPPRLPRPRPRPFYAPRP | -0.642
71 | RRIRERPPRLPRPRPRPRFGPRP | 0.152
72 | RRIRLRPPRLPRPRPRPCTRPRP | -0.0398
73 | RRIRDRPPRLPRPRPRPRTHPRP | -0.188
74 | RRIRMRPPRLPRPRPRPNSRPRP | 0.169
75 | RRIRKRPPRLPRPRPRPFLRPRP | 0.13

Row | Sequence | shrunken log2 fold change
76 | RRIRGRPPRLPRPRPRPNFTPRP | 0.298
77 | RRIRLRPPRLPRPRPRPIQIPRP | 0.03
78 | RRIRMRPPRLPRPRPRPQICPRP | 0.058
79 | RRIRIRPPRLPRPRPRPDNCPRP | -0.162
80 | RRIRSRPPRLPRPRPRPYWVPRP | -0.314
81 | RRIRERPPRLPRPRPRPTTHPRP | -0.294
82 | RRIRLRPPRLPRPRPRPNVAPRP | 0.0405
83 | RRIRRRPPRLPRPRPRPVYFPRP | -0.267
84 | RRIRVRPPRLPRPRPRPMYSPRP | -0.242
85 | RRIRARPPRLPRPRPRPNPDPRP | 0.571
86 | RRIRKRPPRLPRPRPRPLAMPRP | 0.486
87 | RRIRNRPPRLPRPRPRPQESPRP | -0.342
88 | RRIRLRPPRLPRPRPRPGVNPRP | 0.0348
89 | RRIRMRPPRLPRPRPRPWMFPRP | 0.00324
90 | RRIRTRPPRLPRPRPRPWRLPRP | -0.127
91 | RRIRERPPRLPRPRPRPWNYPRP | -0.00131
92 | RRIRNRPPRLPRPRPRPLVTPRP | 0.0322
93 | RRIRVRPPRLPRPRPRPPCPPRP | 0.0333
94 | RRIRTRPPRLPRPRPRPLNVPRP | -0.0675
95 | RRIRPRPPRLPRPRPRPGQNPRP | 0.0194
96 | RRIRLRPPRLPRPRPRPSWQPRP | -0.0855
97 | RRIRDRPPRLPRPRPRPINKPRP | -0.287
98 | RRIRKRPPRLPRPRPRPNCHPRP | -0.131
99 | RRIRPRPPRLPRPRPRPTKAPRP | -0.191
100 | RRIRQRPPRLPRPRPRPGHQPRP | -0.00101

Row | Sequence | shrunken log2 fold change
101 | RRIRERPPRLPRPRPRPRTHPRP | -0.574
102 | RRIRERPPRLPRPRPRPIIQPRP | -0.386
103 | RRIRNRPPRLPRPRPRPGDRPRP | 0.0819
104 | RRIRKRPPRLPRPRPRPYVKPRP | -0.312
105 | RRIRERPPRLPRPRPRPFQIPRP | -0.145
106 | RRIRYRPPRLPRPRPRPATWPRP | -0.154
107 | RRIRVRPPRLPRPRPRPYVGPRP | -0.0869
108 | RRIRERPPRLPRPRPRPTMMPRP | -0.0968
109 | RRIRYRPPRLPRPRPRPAWIPRP | -0.259
110 | RRIRHRPPRLPRPRPRPDDIPRP | -0.0131
111 | RRIRKRPPRLPRPRPRPNDTPRP | -0.11
112 | RRIRQRPPRLPRPRPRPDRVPRP | 0.00438
113 | RRIRKRPPRLPRPRPRPPYFPRP | -0.101
114 | RRIRERPPRLPRPRPRPMEMPRP | 0.0606
115 | RRIRMRPPRLPRPRPRPYGHPRP | -0.0791
116 | RRIRDRPPRLPRPRPRPHYEPRP | -0.0202
117 | RRIRVRPPRLPRPRPRPIDPPRP | -0.0131
118 | RRIRLRPPRLPRPRPRPKQGPRP | -0.0685
119 | RRIRLRPPRLPRPRPRPELVPRP | 0.113
120 | RRIRTRPPRLPRPRPRPNTYPRP | -0.614
121 | RRIRARPPRLPRPRPRPFWFPRP | 0.0903
122 | RRIRCRPPRLPRPRPRPGMYPRP | -0.848
123 | RRIRMRPPRLPRPRPRPPSLPRP | 0.619
124 | RRIRRRPPRLPRPRPRPLSCPRP | -0.146
125 | RRIRERPPRLPRPRPRPISIPRP | -0.258
